Results as given in patent US20060210655A1, “Bioactive compositions, natural methods of producing them and computational methods for designing natural production processes” (priority 2004, published 2006).

Tests used:
[1] = obese or nonobese subjects, cited from earlier work
CCK-B receptor = biological target: T1, CCK-B receptor (Homo sapiens, UniProt P32239); assay: competitive binding assay against CCK-8 for binding to the CCK-B GPCR receptor; conditions: for inhibition of CCK-8 binding to the CCK-B receptor: peptides purified from trypsin hydrolysate, 10 μM; for inhibition of binding of the ligand CCK-8 to CCK-B receptor: synthetic peptides, 10 μM concentration
T1 sequence (P32239 1-447): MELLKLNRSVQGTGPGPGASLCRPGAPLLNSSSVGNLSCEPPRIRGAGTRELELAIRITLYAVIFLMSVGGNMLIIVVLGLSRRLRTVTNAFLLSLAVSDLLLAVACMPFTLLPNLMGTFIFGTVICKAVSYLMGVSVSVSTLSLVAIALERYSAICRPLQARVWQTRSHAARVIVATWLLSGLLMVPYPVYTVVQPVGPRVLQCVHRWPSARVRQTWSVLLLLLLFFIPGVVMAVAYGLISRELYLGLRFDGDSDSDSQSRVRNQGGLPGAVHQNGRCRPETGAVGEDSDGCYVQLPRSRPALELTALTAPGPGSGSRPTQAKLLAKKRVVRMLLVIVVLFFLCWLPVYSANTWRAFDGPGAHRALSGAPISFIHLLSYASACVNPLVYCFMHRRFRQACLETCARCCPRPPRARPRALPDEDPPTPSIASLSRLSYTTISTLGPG
Method: Oryzacystatin is a cystein proteinase inhibitor protein. […] The peptides […], PWMDFK and […] were synthesized in 5 mg quantities and purified to a purity of above about 90%. The peptides were tested in a competitive binding assay against CCK-8 for binding to the CCK-B GPCR receptor.
In-vitro receptor-based screening of receptor subtypes CCK-A and CCK-B was performed according to protocols known in the art. The binding activity of peptides […], PWMDFK and […] on CCK-A and CCK-B GPCR was measured as the percentage of inhibition of binding of the endogenous ligand CCK-8 sequence. The CCK-8 sequence was used as a positive control in this assay. […] None of the peptides tested activated CCK-A receptor at concentrations as high as 10 μM, probably due to the lack of sulfonation, a chemical modification required for agonizing the CCK-A receptor.
Hydrolysates were generated from the recombinantly expressed and purified oryzacystatin protein which was isolated from Oryza sativa. Trypsin was used to hydrolyze 10 mg of each sample using standard conditions. […] Again the hydrolysate and the two purified peptides were submitted to receptor-based screening. The hydrolysate itself inhibited CCK-8 binding to the CCK-B receptor by 21% at a 100 μM hydrolysate concentration, while the purified peptides, […] and PWMDFK, inhibited CCK-8 binding by 16%, and 14% at a 10 μM concentrations.
A final optimization of the hydrolysis by the combined consecutive action of trypsin and limited carboxypeptidase digestion was carried out with the goal of obtaining the peptides […] and PWMDF, resulting from the removal of the C-terminal lysine residue.

Y2-GPCR = biological target: T2, Y2-GPCR (Homo sapiens, UniProt P49146); assay: competitive binding assay against PYY22-36 on Y2-GPCR
T2 sequence (P49146 1-381): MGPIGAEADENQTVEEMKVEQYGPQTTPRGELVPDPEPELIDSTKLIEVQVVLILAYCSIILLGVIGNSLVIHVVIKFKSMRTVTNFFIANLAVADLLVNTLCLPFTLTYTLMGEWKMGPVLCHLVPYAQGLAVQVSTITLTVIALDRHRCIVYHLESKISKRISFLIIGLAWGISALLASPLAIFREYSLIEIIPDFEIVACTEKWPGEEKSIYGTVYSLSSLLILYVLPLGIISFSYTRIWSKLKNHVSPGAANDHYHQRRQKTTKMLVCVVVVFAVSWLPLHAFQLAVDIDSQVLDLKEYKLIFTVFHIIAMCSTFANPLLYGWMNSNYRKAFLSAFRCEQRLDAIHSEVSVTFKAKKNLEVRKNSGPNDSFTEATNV
Method: The peptides derived from the proteins AtRGP2, OsRGP1 and OsBiP were synthesized in 5 mg quantities at and purified to a purity of above about 90%. The peptides were tested in a competitive binding assay against PYY^22-36 for binding to the GPCR receptor.
In-vitro receptor-based screening of receptor subtypes Y1, Y2, and Y3 was performed according to protocols known in the art. (Munoz et al., Mol. Cell. Endocrinol. 107, 77 (1995), Fuhlendorf et al., PNAS 87, 182 (1990)) Screening of OsBiP, ZMRGP1 and AtRGP1 was conducted on Y2-GPCR as described above using known methods and activity was measured as the percentage of inhibition of binding of the endogenous ligand PYY^22-36 sequence. The PYY^22-36 sequence was used as a positive control. Of the peptides tested, the one derived from AtRGP1 protein was able to inhibit binding of PYY^22-36 by 20-40% when 10 μM concentration of both the PYY^22-36 and […] peptide were used in the binding assay. […] In vivo tissue-based screening on cultures of rat colon cells can be carried out according to known protocols, such as described in Dumont et al., Eur. J. Pharmacol. 238, 37 (1993).

[2] = biological target: T3, Y2 G-protein-coupled receptor; assay: competitive receptor binding assay on Y2-GPCR against PYY22-36, both peptides at 10 µM
T3 sequence (P49146 whole entry, species assumed, looked up): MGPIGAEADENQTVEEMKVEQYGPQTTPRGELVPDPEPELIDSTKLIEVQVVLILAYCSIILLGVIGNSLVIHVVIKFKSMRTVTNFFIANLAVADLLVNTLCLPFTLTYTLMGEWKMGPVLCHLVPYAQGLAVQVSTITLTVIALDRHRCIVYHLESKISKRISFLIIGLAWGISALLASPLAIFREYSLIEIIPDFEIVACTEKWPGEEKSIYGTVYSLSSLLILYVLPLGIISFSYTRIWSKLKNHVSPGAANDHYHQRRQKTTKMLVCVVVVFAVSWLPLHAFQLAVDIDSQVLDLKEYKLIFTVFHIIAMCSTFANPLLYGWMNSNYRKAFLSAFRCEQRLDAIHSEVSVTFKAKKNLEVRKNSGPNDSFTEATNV

[3] = biological target: T4, CCK-B GPCR receptor (Homo sapiens (Human)) (UniProt P32239); assay: competitive receptor binding assay against CCK-8 on CCK-B receptor, synthetic peptide at 10 µM
T4 sequence: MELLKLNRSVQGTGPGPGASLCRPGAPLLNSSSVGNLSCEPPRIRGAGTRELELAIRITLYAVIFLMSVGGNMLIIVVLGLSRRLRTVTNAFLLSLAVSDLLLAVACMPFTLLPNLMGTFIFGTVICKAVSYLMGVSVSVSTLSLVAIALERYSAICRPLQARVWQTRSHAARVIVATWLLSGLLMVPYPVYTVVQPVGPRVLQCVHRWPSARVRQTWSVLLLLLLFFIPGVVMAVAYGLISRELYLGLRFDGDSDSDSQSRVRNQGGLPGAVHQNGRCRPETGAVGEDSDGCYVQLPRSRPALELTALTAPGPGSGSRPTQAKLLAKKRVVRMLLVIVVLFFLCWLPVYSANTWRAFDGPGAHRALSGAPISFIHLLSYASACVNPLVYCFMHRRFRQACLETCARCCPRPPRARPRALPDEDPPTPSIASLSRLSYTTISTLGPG

## PYY: natural hormone produced by endocrine L-cells in the gut; agonist of Y2 receptors
[1]; after 90-minute intravenous infusion
  cumulative 24-hour caloric intake: significant decrease
[1]; two hours after a 90-minute intravenous infusion
  reduction of caloric intake: 30%

## VWEKPWMDFK (listed as Oryza sativa) [Oryza sativa oryzacystatin fragment, trypsin]
CCK-B receptor
  inhibition of CCK-8 binding to the CCK-B receptor: 16%
  inhibition of binding of the ligand CCK-8 to CCK-B receptor: 27%

## PWMDFK (listed as Oryza sativa) [Oryza sativa oryzacystatin fragment, trypsin]
CCK-B receptor
  inhibition of CCK-8 binding to the CCK-B receptor: 14%
  inhibition of binding of the ligand CCK-8 to CCK-B receptor: 16%

## FDGVDFSEPLTRARF (listed as Oryza sativa) [OsBIP]
Y2-GPCR; qualitative
  binding to the Y2 receptor: shown to bind the Y2 receptor

## YSCRYFGYLVSKKKY (listed as Arabidopsis thaliana) [AtRGP1, peptide derived from Arabidopsis thaliana amylogenin protein RGP]
Y2-GPCR; Y2-GPCR, 10 μM concentration of both PYY22-36 and peptide
  percentage of inhibition of binding of PYY22-36: 20-40%

## PWMDFKELQEFK (listed as Oryza sativa) [Oryza sativa oryzacystatin fragment, trypsin]
CCK-B receptor
  inhibition of binding of the ligand CCK-8 to CCK-B receptor: 5%

## YSCRYFGYLVSKKKY [AtRGP2 peptide fragment]
[2]
  % inhibition of binding of PYY22-36: 20 to 40%

## PWMDFKELQEFK [Oryza sativa oryzacystatin hydrolyzed with trypsin - synthetic peptide 3]
[3]
  % inhibition of binding of CCK-8: 5%
